From the supplement of paper PMC9112550, “Optimization of the antimicrobial peptide Bac7 by deep mutational scanning” (BMC Biology, 2022)

Test system: Escherichia coli TOP10
Test: shrunken log2 fold change of peptide-encoding DNA abundance (4.5 h post-induction vs induction); higher = less antimicrobial activity (less host growth inhibition)
Conditions: time post-induction: 4.5 h; library: site-saturation at positions 5, 18, 19, 20
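Also: peptides expressed intracellularly from a pBAD plasmid library in pooled LB shake-flask culture, induced with 0.3% L-arabinose, DNA abundance read by NGS, three biological replicates, DESeq2 with apeglm shrinkage.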

Sequence | shrunken log2 fold change
RRIRHRPPRLPRPRPRPTGDPRP | 0.208
RRIRFRPPRLPRPRPRPDLIPRP | -0.0121
RRIRCRPPRLPRPRPRPNMLPRP | -0.398
RRIRRRPPRLPRPRPRPMEYPRP | -0.0405
RRIRKRPPRLPRPRPRPPKPPRP | 0.319
RRIRQRPPRLPRPRPRPEAVPRP | 0.217
RRIRVRPPRLPRPRPRPLHQPRP | 0.0791
RRIRCRPPRLPRPRPRPGRHPRP | 0.105
RRIRPRPPRLPRPRPRPRNIPRP | -0.222
RRIRHRPPRLPRPRPRPSVRPRP | -0.158
RRIRGRPPRLPRPRPRPDSIPRP | 0.495
RRIRNRPPRLPRPRPRPNLMPRP | -0.733
RRIRERPPRLPRPRPRPLAGPRP | -0.113
RRIRDRPPRLPRPRPRPQECPRP | 0.0795
RRIRMRPPRLPRPRPRPKTDPRP | 1.32
RRIRCRPPRLPRPRPRPEFWPRP | 0.163
RRIRGRPPRLPRPRPRPDAFPRP | 1.87
RRIRTRPPRLPRPRPRPNFGPRP | -0.0173
RRIRLRPPRLPRPRPRPNAWPRP | 0.0821
RRIRRRPPRLPRPRPRPHWTPRP | -0.12
RRIRNRPPRLPRPRPRPHMRPRP | -0.00174
RRIRARPPRLPRPRPRPPRTPRP | 1.12
RRIRKRPPRLPRPRPRPPWNPRP | 0.136
RRIRARPPRLPRPRPRPDAMPRP | 1.02
RRIRMRPPRLPRPRPRPIKGPRP | -0.0612

Sequence | shrunken log2 fold change
RRIRHRPPRLPRPRPRPFMLPRP | -0.726
RRIRLRPPRLPRPRPRPRNAPRP | -0.0271
RRIRCRPPRLPRPRPRPMLTPRP | -0.0319
RRIRIRPPRLPRPRPRPSPMPRP | -0.2
RRIRLRPPRLPRPRPRPSSYPRP | -0.542
RRIRFRPPRLPRPRPRPIAFPRP | 0.0375
RRIRLRPPRLPRPRPRPMQQPRP | 0.0192
RRIRKRPPRLPRPRPRPWHNPRP | -0.124
RRIRLRPPRLPRPRPRPLPWPRP | 0.334
RRIRIRPPRLPRPRPRPGRCPRP | -0.0543
RRIRERPPRLPRPRPRPENAPRP | -0.00683
RRIRNRPPRLPRPRPRPVSQPRP | -0.0152
RRIRRRPPRLPRPRPRPDFIPRP | 0.0171
RRIRWRPPRLPRPRPRPMTYPRP | -0.289
RRIRGRPPRLPRPRPRPGYEPRP | 0.365
RRIRGRPPRLPRPRPRPDNPPRP | 0.0274
RRIRLRPPRLPRPRPRPRAKPRP | 0.139
RRIRRRPPRLPRPRPRPDYAPRP | 0.559
RRIRVRPPRLPRPRPRPQIIPRP | -0.299
RRIRKRPPRLPRPRPRPDRHPRP | -0.091
RRIRERPPRLPRPRPRPWFMPRP | -0.688
RRIRRRPPRLPRPRPRPTGQPRP | 0.675
RRIRRRPPRLPRPRPRPANQPRP | 0.0564
RRIRRRPPRLPRPRPRPAWNPRP | 0.141
RRIRDRPPRLPRPRPRPCWDPRP | 0.392

Sequence | shrunken log2 fold change
RRIRWRPPRLPRPRPRPHQWPRP | -0.0271
RRIRNRPPRLPRPRPRPLPAPRP | 1.07
RRIRQRPPRLPRPRPRPCMDPRP | 0.00489
RRIRIRPPRLPRPRPRPNSSPRP | -0.369
RRIRMRPPRLPRPRPRPSKYPRP | -0.166
RRIRQRPPRLPRPRPRPFAMPRP | -0.132
RRIRVRPPRLPRPRPRPGDKPRP | 0.00318
RRIRCRPPRLPRPRPRPGYHPRP | -0.997
RRIRHRPPRLPRPRPRPENIPRP | -0.0173
RRIRWRPPRLPRPRPRPPIMPRP | 0.271
RRIRTRPPRLPRPRPRPSNKPRP | -0.916
RRIRMRPPRLPRPRPRPTYNPRP | -0.361
RRIRARPPRLPRPRPRPSAEPRP | 0.976
RRIRLRPPRLPRPRPRPCYTPRP | -0.525
RRIRRRPPRLPRPRPRPWPNPRP | -0.0193
RRIRTRPPRLPRPRPRPQYWPRP | -0.163
RRIRMRPPRLPRPRPRPPNIPRP | -0.113
RRIRLRPPRLPRPRPRPMTSPRP | 0.142
RRIRFRPPRLPRPRPRPIGCPRP | -0.111
RRIRERPPRLPRPRPRPADEPRP | -0.032
RRIRFRPPRLPRPRPRPGCAPRP | 1.03
RRIRFRPPRLPRPRPRPHRIPRP | -0.526
RRIRGRPPRLPRPRPRPSPYPRP | -0.148
RRIRDRPPRLPRPRPRPAVVPRP | 0.0373
RRIRIRPPRLPRPRPRPVAHPRP | 0.0168

Sequence | shrunken log2 fold change
RRIRSRPPRLPRPRPRPTPKPRP | 0.697
RRIRFRPPRLPRPRPRPKDDPRP | -0.052
RRIRIRPPRLPRPRPRPSEVPRP | 0.0174
RRIRTRPPRLPRPRPRPRSDPRP | 0.0841
RRIRDRPPRLPRPRPRPMDKPRP | -0.0384
RRIRARPPRLPRPRPRPEMEPRP | 1.3
RRIRPRPPRLPRPRPRPFGGPRP | 0.0321
RRIRDRPPRLPRPRPRPNAAPRP | 0.0798
RRIRYRPPRLPRPRPRPTCSPRP | -0.0789
RRIRQRPPRLPRPRPRPDFHPRP | 0.0254
RRIRYRPPRLPRPRPRPHEAPRP | -0.215
RRIRHRPPRLPRPRPRPEEIPRP | 0.0207
RRIRQRPPRLPRPRPRPVLGPRP | 0.226
RRIRCRPPRLPRPRPRPNFVPRP | -0.123
RRIRMRPPRLPRPRPRPSLTPRP | 0.806
RRIRRRPPRLPRPRPRPESIPRP | -0.195
RRIRGRPPRLPRPRPRPRVIPRP | 0.227
RRIRVRPPRLPRPRPRPFMPPRP | -0.355
RRIRERPPRLPRPRPRPFGVPRP | 0.00331
RRIRKRPPRLPRPRPRPKTGPRP | 0.821
RRIRPRPPRLPRPRPRPSNHPRP | -0.497
RRIRWRPPRLPRPRPRPRMNPRP | -0.111
RRIRDRPPRLPRPRPRPIPQPRP | -0.0127
RRIRGRPPRLPRPRPRPLETPRP | 0.985
RRIRARPPRLPRPRPRPEVMPRP | 0.28

Sequence | shrunken log2 fold change
RRIRNRPPRLPRPRPRPCKWPRP | -0.339
RRIRPRPPRLPRPRPRPQEIPRP | 0.017
RRIRTRPPRLPRPRPRPDPGPRP | 0.0486
RRIRQRPPRLPRPRPRPSYVPRP | -1.04
RRIRHRPPRLPRPRPRPGSSPRP | 0.0127
RRIRERPPRLPRPRPRPHGNPRP | -0.0832
RRIRSRPPRLPRPRPRPGDFPRP | 0.0535
RRIRERPPRLPRPRPRPVTDPRP | -0.069
RRIRCRPPRLPRPRPRPIAYPRP | -0.113
RRIRFRPPRLPRPRPRPCICPRP | -0.136
RRIRLRPPRLPRPRPRPVMQPRP | 0.00383
RRIRMRPPRLPRPRPRPQKWPRP | -0.00664
RRIRWRPPRLPRPRPRPCIKPRP | 0.0427
RRIRERPPRLPRPRPRPQCEPRP | -0.0239
RRIRYRPPRLPRPRPRPLCAPRP | -0.356
RRIRGRPPRLPRPRPRPTGFPRP | 1.23
RRIRMRPPRLPRPRPRPSVPPRP | -0.0568
RRIRGRPPRLPRPRPRPFRRPRP | 0.234
RRIRVRPPRLPRPRPRPWWGPRP | 0.0115
RRIRLRPPRLPRPRPRPNAGPRP | 0.0644
RRIRCRPPRLPRPRPRPGQMPRP | -0.147
RRIRWRPPRLPRPRPRPGHVPRP | 0.153
RRIRDRPPRLPRPRPRPLHNPRP | -0.338
RRIRFRPPRLPRPRPRPEDNPRP | -0.00777
RRIRNRPPRLPRPRPRPFYGPRP | -0.107

Sequence | shrunken log2 fold change
RRIRHRPPRLPRPRPRPCVRPRP | -0.504
RRIRVRPPRLPRPRPRPQSMPRP | 0.229
RRIRQRPPRLPRPRPRPELAPRP | 0.577
RRIRPRPPRLPRPRPRPTTMPRP | -0.126
RRIRRRPPRLPRPRPRPLCAPRP | 0.646
RRIRMRPPRLPRPRPRPTDYPRP | 0.166
RRIRSRPPRLPRPRPRPGIYPRP | -0.135
RRIRRRPPRLPRPRPRPQPWPRP | 0.067
RRIRLRPPRLPRPRPRPCREPRP | 0.251
RRIRPRPPRLPRPRPRPSRVPRP | 0.269
RRIRVRPPRLPRPRPRPRLCPRP | 0.564
RRIRSRPPRLPRPRPRPKIDPRP | -0.000854
RRIRHRPPRLPRPRPRPDGDPRP | 0.0106
RRIRSRPPRLPRPRPRPEAYPRP | -0.141
RRIRARPPRLPRPRPRPLEFPRP | 0.231
RRIRSRPPRLPRPRPRPWRWPRP | 0.124
RRIRIRPPRLPRPRPRPRYGPRP | -0.411
RRIRPRPPRLPRPRPRPNQCPRP | -0.0767
RRIRFRPPRLPRPRPRPCLYPRP | -0.881
RRIRSRPPRLPRPRPRPFNLPRP | -0.218
RRIRARPPRLPRPRPRPNRSPRP | -0.229
RRIRWRPPRLPRPRPRPEQLPRP | 0.00937
RRIRYRPPRLPRPRPRPPWQPRP | -0.121
RRIRIRPPRLPRPRPRPNFFPRP | 0.00639
RRIRRRPPRLPRPRPRPRSQPRP | 0.533
